# Measurements: PMC6697735, “Generation of amine dehydrogenases with increased catalytic performance and substrate scope from ε-deaminating L-Lysine dehydrogenase” (Nature Communications, 2019)
# Columns and labels:
# [1] = molecular target: T1, LE-AmDH-v1 (ε-deaminating L-lysine dehydrogenase LysEDH F173A) (Geobacillus stearothermophilus, UniProt Q9AJC6, F173A); test: steady-state kinetics, Lineweaver-Burk competitive product inhibition, NADH oxidation at […] nm, […] °C; assay type: biochemical
# T1 construct: gene lysDH
# O=Cc1ccccc1 = test: purified protein; conditions: NADH
# CC(=O)c1ccccc1 = test: purified protein; conditions: NADH model: phenyl ring in the new hydrophobic cavity created by F173A
Compound,Ki [1],Km (O=Cc1ccccc1),Km (CC(=O)c1ccccc1)
C[C@@H](N)c1ccccc1 [(R)-8b],4.48 mM,–,–
LE-AmDH-v1 (ε-deaminating L-lysine dehydrogenase LysEDH F173A) (Geobacillus stearothermophilus; F173A),–,4.9 ± 0.5 mM,5.5 ± 0.5 mM
